This is an account of results in patent publication US20250288684A1, “ACETAL-TYPE RELEASABLE POLYOXYETHYLENE DERIVATIVE, PRODUCTION METHOD THEREOF AND ACETAL-TYPE RELEASABLE POLYOXYETHYLENE CONJUGATE” (NOF CORPORATION, priority 2022, published 2025).

The half-life is the time in which the quantity being followed falls by half.

A short description of series [1]: Degradability test: decomposition in deuterium oxide buffer solution, NMR measurement. The class given is physicochemical. The conditions noted are these: pH 7.4; sodium phosphate deuterium oxide buffer solution, pD 7.4, 40° C.; β-alanine adduct amount by NMR; read-out: half-life (t½) (converted). The method, then: Each of the compounds of Formulas (50), (51), (52) and (53) (20 mg) was dissolved in sodium phosphate deuterium oxide buffer solution (0.7 mL) having a pD of 7.4, and then placed in a thermostatic bath at 40° C., and NMR measurement was performed at a random timing. […] A half-life (t½) was calculated from a formula (in which ln represents a logarithm with the Napier's number as a base, and λ represents a product of an exponent of the Napier's number in an approximation formula of the graph and −1) based on the approximation formula.
Each of the compounds of Formulas (75), (76), (77) and (78) (20 mg) was dissolved in sodium phosphate deuterium oxide buffer solution (0.7 mL) having a pD of 7.4, and then placed in a thermostatic bath at 40° C., and NMR measurement was performed at a random timing.

The nature of series [2]: Evaluation of stability of PEGylated insulin in buffer solutions with various pH values (HPLC). In kind it is physicochemical. The conditions noted are these: pH 6.0, 7.0, 8.0 and 9.0 buffer solutions, 25° C. As to the method:
With 100 μL of 100 mM phosphate buffer solution (pH 6.0), 100 μL of 100 mM phosphate buffer solution (pH 7.0), 100 μL of 100 mM ammonium formate buffer solution (pH 8.0), or 100 μL of 100 mM ammonium formate buffer solution (pH 9.0), 100 μL of 0.5 mg/mL PEG(20k)-OCO-NH-insulin prepared in Comparative Example 4 or 100 μL of 0.5 mg/mL 2MPEG(20k)-OCO-NH-insulin prepared in Example 26 was mixed, and then allowed to stand at 25° C. and subjected to HPLC analysis at a random timing.

On to `COCCOc1cccc(C2OCc3cc(COC(=O)NCCC(=O)O)ccc3O2)c1` (centres unmarked) [Formula (53)], for which the half-life at 28.6 mg/mL in series [1] is 231 days.

Regarding “PEG(20k)-OCO-NH-insulin: insulin reacted with SUNBRIGHT MENP-20T [reference compound]”, the “change in amount of PEGylated insulin over time” value in series [2] is “no decrease”.
